Source: patent EP4559472A1

Target: Biotinylated C4b (UniProt P0C0L4)
Experiment: SPR, biotinylated C4b on streptavidin chip, 1:1 steady-state affinity model

mini-C4BP, sequence (P08603 other isoform, or with tags, fused parts or gaps): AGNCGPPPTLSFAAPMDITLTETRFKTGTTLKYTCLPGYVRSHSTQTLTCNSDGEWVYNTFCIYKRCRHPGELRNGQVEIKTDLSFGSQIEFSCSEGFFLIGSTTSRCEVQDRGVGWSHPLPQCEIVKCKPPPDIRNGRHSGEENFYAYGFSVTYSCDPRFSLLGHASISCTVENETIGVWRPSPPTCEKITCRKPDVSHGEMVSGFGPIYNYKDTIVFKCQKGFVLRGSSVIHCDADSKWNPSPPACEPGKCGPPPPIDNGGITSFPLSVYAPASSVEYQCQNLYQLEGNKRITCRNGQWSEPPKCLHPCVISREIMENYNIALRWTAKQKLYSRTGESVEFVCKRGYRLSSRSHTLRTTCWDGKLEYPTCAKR

Kd: 600 nM
Substance: mini-C4BP (from UniProt P08603 1107-1231)
